The results in this text go back to patent US20150010589A1 (published 2015).

T1: soluble collagen type III (pepsin-digested, non-fibrillar; BD Biosciences) (human, UniProt P02461 168-1196)
T1 construct: domain: pepsin-digested, soluble non-fibrillar (tertiary structure, triple helical); also called collagen III
T1 sequence: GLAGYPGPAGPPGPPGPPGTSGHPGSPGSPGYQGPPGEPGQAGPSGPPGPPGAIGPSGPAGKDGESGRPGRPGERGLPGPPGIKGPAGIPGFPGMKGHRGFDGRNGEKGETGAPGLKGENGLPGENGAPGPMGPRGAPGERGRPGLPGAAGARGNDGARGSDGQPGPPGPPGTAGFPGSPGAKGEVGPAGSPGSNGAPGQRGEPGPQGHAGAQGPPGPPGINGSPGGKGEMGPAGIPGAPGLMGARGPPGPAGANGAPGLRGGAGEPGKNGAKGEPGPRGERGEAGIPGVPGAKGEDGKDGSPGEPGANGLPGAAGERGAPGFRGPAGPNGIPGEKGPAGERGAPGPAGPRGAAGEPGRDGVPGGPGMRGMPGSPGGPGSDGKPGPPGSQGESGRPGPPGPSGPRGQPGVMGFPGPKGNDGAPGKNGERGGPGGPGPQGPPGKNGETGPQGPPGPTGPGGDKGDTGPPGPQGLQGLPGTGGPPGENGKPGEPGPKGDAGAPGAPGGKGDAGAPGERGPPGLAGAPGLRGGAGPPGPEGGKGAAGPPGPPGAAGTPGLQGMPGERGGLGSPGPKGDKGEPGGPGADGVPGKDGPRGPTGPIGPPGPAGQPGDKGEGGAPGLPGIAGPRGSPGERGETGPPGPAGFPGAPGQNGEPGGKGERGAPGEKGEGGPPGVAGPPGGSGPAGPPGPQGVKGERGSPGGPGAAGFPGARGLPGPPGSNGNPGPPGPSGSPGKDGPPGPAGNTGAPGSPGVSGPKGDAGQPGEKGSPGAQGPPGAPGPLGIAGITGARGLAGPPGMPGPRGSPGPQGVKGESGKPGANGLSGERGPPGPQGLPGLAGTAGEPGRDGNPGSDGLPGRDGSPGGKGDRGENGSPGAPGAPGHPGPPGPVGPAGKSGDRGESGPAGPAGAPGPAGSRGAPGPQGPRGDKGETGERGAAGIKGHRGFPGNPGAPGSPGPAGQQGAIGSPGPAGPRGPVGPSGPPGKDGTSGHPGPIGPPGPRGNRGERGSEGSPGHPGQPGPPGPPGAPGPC

B1: recombinant GPVI (platelet glycoprotein VI) (receptor)
chain: QSGPLPKPSLQALPSSLVPLEKPVTLRCQGPPGVDLYRLEKLSSSRYQDQAVLFIPAMKRSLAGRYRCSYQNGSLWSLPSDQLELVATGVFAKPSLSAQPGPAVSSGGDVTLQCQTRYGFDQFALYKEGDPAPYKNPERWYRASFPIITVTAAHSGTYRCYSFSSRDPYLWSAPSDPLELVVTGTSVTPSRLPTEPPSPVAEFSEATAELTVSFTNEVFTTETSRSITASPKESDSPAGPARQYYTK
B2: Aegyptin C-terminus-2 (137 aa), truncated form without GEEDA repeats (other)
chain: GGDEGEDNAEDSKGSEKNDPADTYRQVVALLDKDTKVDHIQSEYLRSALNNDLQSEVRVPVVEAIGRIGDYSKIQGCFKSMGKDVKKVISEEEKKFKSCMSKKKSEYQCSEDSFAAAKSKLSPITSKIKSCVSSKGR
notes: also called C-terminal-2; C-terminus 2 domain
B3: recombinant Aegyptin (mature protein with C-terminal 6xHis tag, expressed in 293-F cells) (other)
chain: RPMPEDEEPVAEGGDDDASGESEGEEETTDDAGGDGGEEENEGEEHAGDKDAGGEDTGKEENTGHDDAGEEDAGEEDAGEEDAGEEDAGEEDAEKEEGEKEDAGDDAGSDDGEEDSTGGDEGEDNAEDSKGSEKNDPADTYRQVVALLDKDTKVDHIQSEYLRSALNNDLQSEVRVPVVEAIGRIGDYSKIQGCFKSMGKDVKKVISEEEKKFKSCMSKKKSEYQCSEDSFAAAKSKLSPITSKIKSCVSSKGRHHHHHH

Test [1] concerns the target B3. In words: SPR, Aegyptin injected over immobilized GPVI. A general note: Surface plasmon resonance follows binding to a sensor surface in real time, without labels.
For test [2], the target named is T2, soluble collagen type I (pepsin-digested, non-fibrillar, triple helical; BD Biosciences) (human, UniProt P02452 179-1192; P08123 91-1104).
T2 construct: domain: pepsin-digested, soluble non-fibrillar (tertiary structure, triple helical); also called collagen I; Coll-I
In words: SPR, C-terminus-2 (5-250 nM) over immobilized soluble collagen type I, two-state binding model.

For test [3], the target named is T3, heat-denatured soluble collagen type I (90 min at 98° C.) (human, UniProt P02452 179-1192; P08123 91-1104).
T3 construct: domain: pepsin-digested, soluble non-fibrillar collagen, heat-denatured; Same material as soluble collagen I, denatured in a thermocycler before immobilization; also called Collagen denatured; heat-denatured collagen
In words: SPR, Aegyptin over immobilized heat-denatured collagen I, two-state model; Ka1.

The target of test [4] is T1, soluble collagen type III …. In words: SPR (Biacore T100), Aegyptin over immobilized collagen type III, 25 C, two-state reaction model; Kd1.
The target in test [5] is T2, soluble collagen type I …. In words: SPR, Aegyptin over immobilized soluble collagen type I, two-state model.
The target of test [6] is T2, soluble collagen type I …. In words: SPR, Aegyptin over immobilized soluble collagen type I, 180 s at 30 µl/min, two-state model; Ka1.
The target of test [7] is T2, soluble collagen type I …. In words: SPR (Biacore T100), Aegyptin over immobilized collagen type I, 25 C, two-state reaction model.
Test [8] concerns the target T2, soluble collagen type I …. In words: SPR kinetics at 15-40 C on immobilized collagen type I, van't Hoff analysis; value (±SE).
For test [9], the target named is T1, soluble collagen type III …. In words: SPR (Biacore T100), Aegyptin over immobilized collagen type III, 25 C, two-state reaction model; Ka1.
Test [10] shares this target. In words: SPR (Biacore T100), Aegyptin over immobilized collagen type III, 25 C, two-state reaction model.
Test [11] deals with T3, heat-denatured soluble collagen type I …. In words: SPR, Aegyptin over immobilized heat-denatured collagen I, two-state model.
Test [12] has as its target T2, soluble collagen type I …. In words: SPR, Aegyptin over immobilized soluble collagen type I, two-state model; Kd1.
The target of test [13] is T3, heat-denatured soluble collagen type I …. In words: SPR, Aegyptin over immobilized heat-denatured collagen I, two-state model; Kd1.
The target of test [14] is T2, soluble collagen type I …. In words: SPR (Biacore T100), Aegyptin over immobilized collagen type I, 25 C, two-state reaction model; Ka1.
Test [15] addresses T4, RGQOGVMGFO peptide GPC-(GPP)5-GPOGPSGPRGQOGVMGFOGPKGNDGAO-(GPP)5-GPC-NH2, cross-linked (O residues as printed (hydroxyproline); C-terminal amide (NH2); cross-linked (4° C. for 48 hours in PBS, or SPDP)).
T4 construct: also called collagen type III vWf-related peptide
In words: ELISA, inhibition of vWf (3 nM) binding to the coated RGQOGVMGFO peptide by Aegyptin (0.05-3 µM).

Test [16] addresses T2, soluble collagen type I …. In words: SPR (Biacore T100), Aegyptin over immobilized collagen type I, 25 C, two-state reaction model; Kd1.

T3 sequence (P02452 179-1192 limits assumed, chain 1 of 2): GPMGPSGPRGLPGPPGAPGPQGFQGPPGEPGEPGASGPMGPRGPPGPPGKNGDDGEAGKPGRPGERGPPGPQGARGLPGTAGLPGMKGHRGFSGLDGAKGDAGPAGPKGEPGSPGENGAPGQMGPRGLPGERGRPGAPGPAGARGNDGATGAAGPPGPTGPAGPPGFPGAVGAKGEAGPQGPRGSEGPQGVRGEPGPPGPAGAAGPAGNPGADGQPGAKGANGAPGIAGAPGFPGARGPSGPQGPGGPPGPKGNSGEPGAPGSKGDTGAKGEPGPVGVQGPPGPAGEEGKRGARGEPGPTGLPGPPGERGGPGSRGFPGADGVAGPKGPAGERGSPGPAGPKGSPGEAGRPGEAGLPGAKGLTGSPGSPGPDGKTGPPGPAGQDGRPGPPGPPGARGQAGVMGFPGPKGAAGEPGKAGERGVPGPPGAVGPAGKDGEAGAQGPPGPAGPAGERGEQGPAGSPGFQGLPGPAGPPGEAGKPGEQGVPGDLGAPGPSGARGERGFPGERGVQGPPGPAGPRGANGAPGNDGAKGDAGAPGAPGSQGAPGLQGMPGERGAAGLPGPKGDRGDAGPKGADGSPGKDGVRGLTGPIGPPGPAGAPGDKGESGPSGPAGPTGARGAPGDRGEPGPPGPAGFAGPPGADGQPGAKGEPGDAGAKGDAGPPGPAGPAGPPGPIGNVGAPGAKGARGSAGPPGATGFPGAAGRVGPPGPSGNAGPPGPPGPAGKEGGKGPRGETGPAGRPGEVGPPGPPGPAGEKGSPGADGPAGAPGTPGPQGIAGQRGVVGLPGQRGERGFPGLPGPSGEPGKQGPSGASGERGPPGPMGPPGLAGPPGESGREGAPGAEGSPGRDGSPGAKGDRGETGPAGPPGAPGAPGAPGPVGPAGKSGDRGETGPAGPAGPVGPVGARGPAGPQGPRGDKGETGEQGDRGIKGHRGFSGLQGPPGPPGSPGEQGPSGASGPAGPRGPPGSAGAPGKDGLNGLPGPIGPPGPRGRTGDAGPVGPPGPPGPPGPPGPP
T3 sequence (P08123 91-1104 limits assumed, chain 2 of 2): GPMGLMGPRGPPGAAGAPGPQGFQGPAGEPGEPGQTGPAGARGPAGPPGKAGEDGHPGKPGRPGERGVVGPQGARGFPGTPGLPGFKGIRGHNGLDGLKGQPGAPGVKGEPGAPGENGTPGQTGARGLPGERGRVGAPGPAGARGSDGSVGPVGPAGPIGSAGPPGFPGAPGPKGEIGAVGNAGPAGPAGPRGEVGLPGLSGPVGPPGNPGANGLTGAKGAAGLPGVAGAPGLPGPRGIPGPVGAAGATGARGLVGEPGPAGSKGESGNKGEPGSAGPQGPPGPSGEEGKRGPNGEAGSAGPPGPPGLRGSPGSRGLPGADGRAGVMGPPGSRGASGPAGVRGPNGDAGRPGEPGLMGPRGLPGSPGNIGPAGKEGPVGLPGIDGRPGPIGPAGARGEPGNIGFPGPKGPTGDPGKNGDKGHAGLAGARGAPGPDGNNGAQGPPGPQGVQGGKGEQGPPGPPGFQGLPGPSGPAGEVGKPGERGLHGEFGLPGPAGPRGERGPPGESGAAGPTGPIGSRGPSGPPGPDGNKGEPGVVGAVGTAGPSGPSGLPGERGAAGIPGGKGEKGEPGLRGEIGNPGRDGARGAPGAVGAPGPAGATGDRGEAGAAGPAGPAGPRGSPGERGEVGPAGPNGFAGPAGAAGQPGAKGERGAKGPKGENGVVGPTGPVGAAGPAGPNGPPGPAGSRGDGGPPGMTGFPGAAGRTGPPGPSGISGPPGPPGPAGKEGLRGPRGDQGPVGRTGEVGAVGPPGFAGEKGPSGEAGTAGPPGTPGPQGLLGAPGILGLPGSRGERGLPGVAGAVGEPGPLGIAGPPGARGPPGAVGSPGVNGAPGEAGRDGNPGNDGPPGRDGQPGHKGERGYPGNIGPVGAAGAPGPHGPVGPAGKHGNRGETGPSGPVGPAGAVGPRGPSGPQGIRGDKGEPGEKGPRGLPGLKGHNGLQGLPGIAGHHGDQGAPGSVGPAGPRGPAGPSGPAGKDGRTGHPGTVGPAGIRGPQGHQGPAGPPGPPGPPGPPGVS
T2 sequence (P02452 179-1192 limits assumed, chain 1 of 2): as the sequence (P02452 179-1192 limits assumed, chain 1 of 2) above
T2 sequence (P08123 91-1104 limits assumed, chain 2 of 2): as the sequence (P08123 91-1104 limits assumed, chain 2 of 2) above

For the molecule B1, in test [1], the binding result is “no binding (tested: 500 nM)”.

A word on the Kd: it is the free concentration of one partner at which half of the binding sites on the other are occupied at equilibrium, for simple one-to-one binding. In turn, B2 gave a Kd in test [2] of approximately 60 nM.

What is called kon is a measure of how fast the partners come together. For orientation: koff means a measure of how fast the partners let go of each other. Broadly, the IC50 is the concentration that inhibits the measured activity by half. The low end stands for greater potency, the high end for weaker potency. Consider B3, for which the kon in test [3] was 6740 M⁻¹ s⁻¹; in [6], 3.63e+08 M⁻¹ s⁻¹; in test [9] it was 2.49e+06 M⁻¹ s⁻¹; in [14], 4.24e+06 M⁻¹ s⁻¹. Also, the koff in test [4] came to 0.00605 s⁻¹; in [12] it was 0.0103 s⁻¹; in [13] it was 0.0188 s⁻¹; in [16] it was 0.0154 s⁻¹. The Kd in test [5] was 0.98 nM; in [7], 1.22 nM; in test [10] it was 1.4 nM; in [11] it was 3.32 nM. For the same molecule, in test [8], the “TΔS°” value worked out at 6.69 kcal/mol. Besides, in test [8], the “ΔG°” value was -11.5 kcal/mol. For the same molecule, the “ΔH°” value in test [8] was -4.78 kcal/mol. The “ΔS°” value in test [8] was 95 J/(K*mol). The molecule also registered an IC50 in test [15] of approximately 300 nM.
